Test results published in patent US20180117114A1, “PEPTIDES THAT MODULATE THE EFFECT OF THE CRMP: NEUROFIBROMIN COMPLEX ON SYNAPTIC TRANSMISSION” (Indiana University Research and Technology Coporation, priority 2015, published 2018).

Columns and labels:
CRMP-2 = target: T1, CRMP-2 (Mus musculus, UniProt O08553); test: SPOTS blot of neurofibromin C-terminus peptides overlaid with mouse brain lysate, probed with CRMP-2 antibodies; type: binding; conditions: 15-mers, three CRMP-2 antibodies, FIG. 4
T1 construct: overlaid with wild-type mouse brain lysate in NF1 solubilization buffer; from tissue; host or cells: wild-type mouse brain lysate
Protocol: FIG. 4 presents plot of mean binding of CRMP-2 to neurofibromin versus peptide blot position. Neurofibromin peptides (15-mers) were spotted onto a SPOTS blot membrane from amino acids 2260-2818 of […], a region where neurofibromin has been reported to bind CRMP-2. The blots were blocked, then overlaid with wild-type mouse brain lysate in NF1 solubilization buffer, washed briefly, then incubated with poly CRMP-2 (Sigma) or mono CRMP-2+poly CRMP-2 phospho Ser522 and Ser555 antibodies. The blots were scanned (Licor) and the spot intensity normalized to the maximum intensity in each series. The normalized data was then averaged and the mean+/−SEM is shown in the graph above (n=3).
Referring now to FIG. 4, peptides encompassing the C-terminus of neurofibromin were spotted with CRMP-2 and the resulting blot was probed with three different CRMP-2 antibodies. […] These peptides are: SEQ ID NO: 1, RVSHGQIKQIIRILS; SEQ ID NO: 2, KGYRHPSPAIVARTV, and SEQ ID NO: 3, YLQSFGFNGLWRFAG. In order to facilitate their entry into cells, each peptide may be fused to a portion of the cell-membrane transduction domain of the human immunodeficiency virus-type 1 (HIV-1) transactivator of transcription (TAT) protein (SEQ ID NO: 4 and/or SEQ ID NO: 6).

CaV2.2 [1] = test: CaV2.2 currents in transfected neurons by whole-cell voltage clamp electrophysiology; type: cell-based; conditions: compared to CRMP-2 neurons; 2 days post-transfection
Protocol: (§1) Recently, it was shown that CRMP-2 facilitates CaV2.2 membrane trafficking in hippocampal and sensory neurons (12, 13), the hypothesis that the CBD3 peptide would act in a dominant negative manner to inhibit this CRMP-2 mediated trafficking was tested. Plasmids containing full-length CRMP-2 or the CBD3 peptide fused to enhanced green fluorescent protein (EGFP) were transiently transfected into human embryonic kidney 293 (HEK293) cells expressing CaV2.2. […] Since CBD3 peptide expression was sufficient in preventing forward trafficking of CaV2.2, it is possible that this would result in loss of currents via these channels. To test this, neurons were transfected with full-length CRMP-2 or CBD3 peptide and measured CaV2.2 currents 2 days post-transfection using whole-cell voltage clamp electrophysiology. Expression of CBD3 reduced peak Ca^2+ current density by ˜64% compared to CRMP-2 neurons (FIGS. 2C and 2D).

CaV2.2 [2] = target: T2, CaV2.2 (Homo sapiens, UniProt Q00975); test: CaV2.2 surface staining in transfected HEK293 cells expressing CaV2.2; type: cell-based; conditions: HEK293 cells expressing CaV2.2, transiently transfected with EGFP-fused plasmids
T2 construct: expressed in transfected cells; host or cells: HEK293 cells expressing CaV2.2
T2 sequence (Q00975 whole entry, the tested form may be a part): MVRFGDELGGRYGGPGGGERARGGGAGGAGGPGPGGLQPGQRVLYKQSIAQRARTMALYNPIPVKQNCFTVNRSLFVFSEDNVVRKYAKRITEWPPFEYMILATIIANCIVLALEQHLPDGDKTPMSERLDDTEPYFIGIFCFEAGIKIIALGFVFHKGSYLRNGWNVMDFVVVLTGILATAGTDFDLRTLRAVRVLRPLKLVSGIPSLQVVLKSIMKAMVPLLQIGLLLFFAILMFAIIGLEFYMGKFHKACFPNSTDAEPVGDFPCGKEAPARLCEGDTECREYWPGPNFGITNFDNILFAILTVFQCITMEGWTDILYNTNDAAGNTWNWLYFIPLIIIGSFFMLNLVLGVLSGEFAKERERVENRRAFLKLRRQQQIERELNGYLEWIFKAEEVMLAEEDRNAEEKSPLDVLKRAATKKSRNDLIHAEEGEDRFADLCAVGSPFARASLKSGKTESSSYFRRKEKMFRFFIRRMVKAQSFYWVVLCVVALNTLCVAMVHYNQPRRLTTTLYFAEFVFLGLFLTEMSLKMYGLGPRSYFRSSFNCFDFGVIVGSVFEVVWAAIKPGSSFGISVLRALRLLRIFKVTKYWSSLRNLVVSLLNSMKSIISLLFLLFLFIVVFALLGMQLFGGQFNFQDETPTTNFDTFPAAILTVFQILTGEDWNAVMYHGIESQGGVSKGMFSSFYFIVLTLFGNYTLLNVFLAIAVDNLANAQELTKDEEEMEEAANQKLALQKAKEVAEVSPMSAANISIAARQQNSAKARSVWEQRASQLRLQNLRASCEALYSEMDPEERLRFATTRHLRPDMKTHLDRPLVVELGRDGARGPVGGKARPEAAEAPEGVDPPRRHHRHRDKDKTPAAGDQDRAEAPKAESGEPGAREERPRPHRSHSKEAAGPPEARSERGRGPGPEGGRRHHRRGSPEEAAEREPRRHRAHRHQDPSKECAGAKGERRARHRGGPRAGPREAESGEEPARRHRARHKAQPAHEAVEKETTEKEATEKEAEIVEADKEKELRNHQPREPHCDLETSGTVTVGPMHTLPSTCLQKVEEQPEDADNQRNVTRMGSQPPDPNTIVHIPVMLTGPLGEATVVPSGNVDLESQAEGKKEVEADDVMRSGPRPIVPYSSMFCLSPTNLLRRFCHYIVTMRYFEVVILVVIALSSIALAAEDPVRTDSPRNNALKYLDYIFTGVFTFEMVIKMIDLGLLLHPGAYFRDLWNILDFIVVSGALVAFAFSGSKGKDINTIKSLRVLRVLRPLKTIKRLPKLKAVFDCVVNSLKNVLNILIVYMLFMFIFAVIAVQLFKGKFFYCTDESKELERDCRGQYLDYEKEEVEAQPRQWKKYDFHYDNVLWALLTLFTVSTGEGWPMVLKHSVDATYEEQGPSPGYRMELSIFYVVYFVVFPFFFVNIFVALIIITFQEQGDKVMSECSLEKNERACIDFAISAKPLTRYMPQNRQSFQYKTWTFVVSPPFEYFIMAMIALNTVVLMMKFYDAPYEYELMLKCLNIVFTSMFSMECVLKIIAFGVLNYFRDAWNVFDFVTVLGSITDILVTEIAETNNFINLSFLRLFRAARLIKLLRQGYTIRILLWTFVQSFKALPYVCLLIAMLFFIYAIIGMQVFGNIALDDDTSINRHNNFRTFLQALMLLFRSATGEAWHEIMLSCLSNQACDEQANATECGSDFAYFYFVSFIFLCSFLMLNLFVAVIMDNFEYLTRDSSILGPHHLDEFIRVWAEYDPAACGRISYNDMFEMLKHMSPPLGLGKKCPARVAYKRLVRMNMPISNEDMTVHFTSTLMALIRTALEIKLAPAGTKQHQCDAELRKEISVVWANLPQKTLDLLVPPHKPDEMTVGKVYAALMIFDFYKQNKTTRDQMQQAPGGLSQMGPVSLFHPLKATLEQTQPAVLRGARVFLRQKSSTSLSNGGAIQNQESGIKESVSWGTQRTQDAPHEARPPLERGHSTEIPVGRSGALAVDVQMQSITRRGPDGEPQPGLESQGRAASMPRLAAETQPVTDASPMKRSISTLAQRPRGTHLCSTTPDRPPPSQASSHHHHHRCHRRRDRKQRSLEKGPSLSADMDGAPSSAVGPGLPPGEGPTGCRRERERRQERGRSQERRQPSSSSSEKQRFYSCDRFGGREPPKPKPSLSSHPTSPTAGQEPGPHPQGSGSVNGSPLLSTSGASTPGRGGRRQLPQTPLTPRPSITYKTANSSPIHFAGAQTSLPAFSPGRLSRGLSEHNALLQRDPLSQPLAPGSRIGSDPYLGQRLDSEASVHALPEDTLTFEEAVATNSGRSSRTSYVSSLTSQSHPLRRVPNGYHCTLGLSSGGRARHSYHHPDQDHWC
Protocol: as §1

| Sequence | CRMP-2 binding to neurofibromin peptides (normalized spot intensity) (CRMP-2) | reduction of peak Ca^2+ current density (CaV2.2 [1]) [%] | cells exhibiting CaV2.2 surface staining (CaV2.2 [2]) [%] |
| --- | --- | --- | --- |
| YLQSFGFNGLWRFAG [SEQ ID NO: 3, a peptide encompassing a portion of the C-terminus of neurofibromin] | peaks | – | – |
| KGYRHPSPAIVARTV [SEQ ID NO: 2, a peptide encompassing a portion of the C-terminus of neurofibromin] | peaks | – | – |
| RVSHGQIKQIIRILS [SEQ ID NO: 1, a peptide encompassing a portion of the C-terminus of neurofibromin] | peaks | – | – |
| DFVYKRIKARSRLAE [CBD3 peptide, a peptide derived from a portion of the CBD3 region; expressed fused to EGFP in b74] | – | ~64 | ~10 |
